Data as given in patent publication US7056694B1, “DNA encoding peripheral-type benzodiazipine receptor associated protein 7 and applications or methods of use” (Georgetown University, priority 1998, dated 2006).

Experiments:
[1] = system: MA-10 cells; assay: Steroid biosynthesis: hCG-stimulated progesterone production in transfected MA-10 cells; assay type: cell-based, mouse; conditions: pSVzeoPAP7 vs pSVzeo empty vector transfectants, hCG 50 ng/ml, dose and time dependent
Protocol: MA-10 cells were grown in modified Waymouth's MB752/1 medium containing 15% horse serum, as described previously (Papadopoulos, V. et al., 1990, J. Biol. Chem. 265, 3772–3779). Mouse C6 glioma and mouse Y1 adrenal cortical cells were cultured in DMEM and DMEM F12 repectively, with 10% fetal bovine serum. MA10 cells were transiently transfected by electroporation (El Hefnawy, T. et al., 1996, Mol. Cell Endocrinol. 119, 207–217). Each Genepulser cuvette (0.4 cm-gap, BioRad, Hercules, Calif.) contained 8×10^6 cells in 350 μl antibiotic-free complete Waymouth's growth medium (see above), plus 30 μg plasmids DNA in 50 μl of 0.1×TE. Cells in electroporation cuvettes were electro-shocked at 330 V and at a capacitance of 950 μFd generated from Genepulser (BioRad, Hercules, Calif.). The cells were kept immediately on ice for 10 min before plated into 96 well plates.
MA-10 cells were plated into 96-well plate at the density of 2.5×10^4/well for overnight. The cells were stimulated with 50 ng/ml hCG in 0.2 ml/well serum-free medium for 2 hours. The culture medium was collected and tested for progesterone production by RIA. The assay was carried out by using anti-progesterone antisera (ICN, Costa Mesa, Calif.), following the conditions recommended by the manufacturer. […] Radioimmunoassay data was analyzed using the software provided by Wallac (EG&G Wallac, Gaithersburg, Md.). […]

[2] = biological target: T1, GAL4 (1-147)-PBR fusion (plasmid pGBT9+PBR), mouse peripheral-type benzodiazepine receptor as two-hybrid bait (mouse, UniProt P04386 1-147; P50637 1-169); assay: yeast two-hybrid, His3 reporter (histidine prototrophy), second-round transformation of HF7c carrying pGBT9-PBR
T1 construct: Bait of the yeast two-hybrid screen, expressed in yeast HF7c; also called pGBT-PBR; fusion PBR protein
Excerpt: The Clontech […] two-hybrid system was applied in this study (detailed in manufacturer's instruction book). Briefly, the yeast reporter host strain HF7c was simultaneously cotransformed with both pGBT-PBR and the mouse testis cDNA library in pGAD10 plasmid by using lithium acetate high-efficiency method (Gietz, D. et al., 1992, *Nucleic Acids Res.* 20, 1425). HIS positive clones were further selected by colony lift filter assay for β-galactosidase activity. Plasmid DNA was rescued in *Escherichia coli* DH5? from yeast cells. Plasmids were retransformed into yeast HF7c cells with plasmid pGBT-PBR to test for histidine prototrophy and β-galactosidase activity (Clontech manual). The cDNA inserts from the positive clones were sequenced. The full length PAP7 cDNA was obtained by using 5' and 3' RACE kit from kit (CLONTECH, Palo Alto, Calif.).
Library plasmids from these transformants were rescued in *E. coli* strain DH5α. Both the His+ phenotype and the expression of β-galactosidase were confirmed by a second-round transformation of strain HF7c carrying pGBT9-PBR (Table 1).

[3] = biological target: PBR (Mus musculus, UniProt P50637); assay: PK 11195 radioligand binding to PBR interacting with PAP20; conditions: PK11195 as a ligand
PBR, sequence (P50637 whole entry): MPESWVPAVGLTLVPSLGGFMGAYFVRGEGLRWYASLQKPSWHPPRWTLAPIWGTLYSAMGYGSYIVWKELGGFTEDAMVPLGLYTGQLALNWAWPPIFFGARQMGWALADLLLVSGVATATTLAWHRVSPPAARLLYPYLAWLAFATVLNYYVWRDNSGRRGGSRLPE
Protocol: ^3H-1-(2-chlorophenyl)-N-methyl-N-(1-methyl-propyl)-3-isoquinolinecarboxamide (PK 11195) (NEN, Boston, Mass.) binding studies were performed as we previously described (Papadopoulos, V. et al., 1990, supra; Garnier, M. et al., 1994, Molecular Pharmacology 45, 201–211). The dissociation constant (Kd) and the number of binding sites (Bmax) were determined by Scatchard plot analysis of the data using the LIGAND program (Munson, P. J. and Rodbard, D., 1980, Anal. Biochem. 107, 220–239).

B1: PAP7: PBR associated protein 7, SEQ ID NO:7; in transfection a partial sequence including the PBR binding domain in pSVzeo (protein, listed as Mus musculus)
chain: RPRRPKVELFTVVTRVKVVLFLNQLSLCKLVKDGKAFHPTYEEKLKFVALHKQVLLGPYNPDTSPEVGFFDVLGNDRRREWAALGNMSKEDAMVEFVKLLNKCCPLLSAYVASHRIEKEEEEKRRKAEEERRQREEEERERLQKEEEKRKREEEDRLRREEEERRRIEEERLRLEQQKQQIMAALNSQTAVQFQQYAAQQYPGNYEQQQILIRQLQEQHYQQYKHQAEQTQPAQQQAALQKQQEVVMAGASLPASSKVNTAGASDTLSVNGQAKTHTENSEKVLEPEAAEEALENGPKDSLPVIAAPSMWTRPQIKDFKEKIRQDADSVITVRRGEVVTVRVPTHEEGSYLFWEFATDSYDIGFGVYFEWTDSPNAAVSVHVSESSDEEEEEEENVTCEEKAKKNANKPLLDEIVPVYRRDCHEEVYAGSHQYPGRGVYLLKFDNSYSLWRSKSVYYRVYYTR
progesterone production in response to hormonal (hCG) stimulation [1]: significantly reduced | progesterone production in response to hormonal (hCG) stimulation ([1]; listed as PAP7 fragment): significantly inhibited

B2: PAP20 (PBR associated protein 20), two-hybrid clone in pGAD10 (other)
chain: ANFNQSGNIADSSLSFTFTNSSNGPNLITTQTNSQALSQPIASSNVHDNFMNNEITASKIDDGNNSKPLSPGWTDQTAYNAFGITTGMFNTTTMDDVYNYLFDDEDTPPNPKKENSRPRRPQKRKRGAEVLAAQIVQKTRLERKKQEASVSKDAPVPTNTKRAKKQEKSPGRIASQSKPPMKKSPQKRKVNVARGRRNTRKQLQPAEKEIALHLQSEISSDGQKDGLNLSTSQQESISMIPKGPPENSVISCDSQALNMLADLALSSAAASIPSCKPRNLPCVSDLPRNNVLLTKENPLLGASDHEYHKG
notes: range 768-881
binding result [2]: binds

B3: PAP20: PBR associated protein, polypeptide of 196 amino acids, SEQ ID NO:10; predominantly expressed in testis (protein, listed as Mus musculus)
chain: NSRPRRPQKRKRGAEVLAAQIVQKTRLERKKQEASVSKDAPVPTNTKRAKKQEKSPGRIASQSKPPMKKSPQKRKVNVARGRRNTRKQLQPAEKEIALHLQSEISSDGQKDGLNLSTSQQESISMIPKGPPENSVISCDSQALNMLADLALSSAAASIPSCKPRNLPCVSDLPRNNVLLTKENPLLGASDHEYHKG
affinity of ligand binding to PBR [3]: increased the affinity of ligand binding
